# Laboratory results taken from patent US20110263454A1, “Methods of Identifying Functional Characteristics of Promoters, Transcription Modifying Proteins and Transcription Modulating Agents” (Salk Institute for Biological Studies, priority 2008, published 2011).
# B1: RXRb: Retinoic X Receptor β (NR2B2), cDNA driver (protein, UniProt P28702 1-533, looked up)
# Retinoic acid receptor …: MSWAARPPFLPQRHAAGQCGPVGVRKEMHCGVASRWRRRRPWLDPAAAAAAAVAGGEQQTPEPEPGEAGRDGMGDSGRDSRSPDSSSPNPLPQGVPPPSPPGPPLPPSTAPSLGGSGAPPPPPMPPPPLGSPFPVISSSMGSPGLPPPAPPGFSGPVSSPQINSTVSLPGGGSGPPEDVKPPVLGVRGLHCPPPPGGPGAGKRLCAICGDRSSGKHYGVYSCEGCKGFFKRTIRKDLTYSCRDNKDCTVDKRQRNRCQYCRYQKCLATGMKREAVQEERQRGKDKDGDGEGAGGAPEEMPVDRILEAELAVEQKSDQGVEGPGGTGGSGSSPNDPVTNICQAADKQLFTLVEWAKRIPHFSSLPLDDQVILLRAGWNELLIASFSHRSIDVRDGILLATGLHVHRNSAHSAGVGAIFDRVLTELVSKMRDMRMDKTELGCLRAIILFNPDAKGLSNPSEVEVLREKVYASLETYCKQKYPEQQGRFAKLLLRLPALRSIGLKCLEHLFFFKLIGDTPIDTFLMEMLEAPHQLA
# B2: PPARd: Peroxisome proliferator activated receptor δ (NR1C2), cDNA driver (protein, UniProt Q03181 1-441, looked up)
# Peroxisome …: MEQPQEEAPEVREEEEKEEVAEAEGAPELNGGPQHALPSSSYTDLSRSSSPPSLLDQLQMGCDGASCGSLNMECRVCGDKASGFHYGVHACEGCKGFFRRTIRMKLEYEKCERSCKIQKKNRNKCQYCRFQKCLALGMSHNAIRFGRMPEAEKRKLVAGLTANEGSQYNPQVADLKAFSKHIYNAYLKNFNMTKKKARSILTGKASHTAPFVIHDIETLWQAEKGLVWKQLVNGLPPYKEISVHVFYRCQCTTVETVRELTEFAKSIPSFSSLFLNDQVTLLKYGVHEAIFAMLASIVNKDGLLVANGSGFVTREFLRSLRKPFSDIIEPKFEFAVKFNALELDDSDLALFIAAIILCGDRPGLMNVPRVEAIQDTILRALEFHLQANHPDAQYLFPKLLQKMADLRQLVTEHAQMMQRIKKTETETSLHPLLQEIYKDMY
# B3: CAR: Constitutive Androstane Receptor (NR1I3), cDNA driver (protein, UniProt Q14994 1-352, looked up)
# Nuclear receptor subfamily 1 …: MASREDELRNCVVCGDQATGYHFNALTCEGCKGFFRRTVSKSIGPTCPFAGSCEVSKTQRRHCPACRLQKCLDAGMRKDMILSAEALALRRAKQAQRRAQQTPVQLSKEQEELIRTLLGAHTRHMGTMFEQFVQFRPPAHLFIHHQPLPTLAPVLPLVTHFADINTFMVLQVIKFTKDLPVFRSLPIEDQISLLKGAAVEICHIVLNTTFCLQTQNFLCGPLRYTIEDGARVSPTVGFQVEFLELLFHFHGTLRKLQLQEPEYVLLAAMALFSPDRPGVTQRDEIDQLQEEMALTLQSYIKGQQRRPRDRFLYAKLLGLLAELRSINEAYGYQIQHIQGLSAMMPLLQEICS
# Tests used:
# mUCP3 promoter = assay: NHR-promoter luciferase screen, mUCP3 promoter; type: cell-based, mouse; settings: for Normalized Luc. act., normalized to control / Luc. act., normalized to lacZ: mUCP3 promoter reporter; for Normalized Luc. act., normalized to control: HR without or with its ligand, relative to control; for Luc. act., normalized to lacZ: hormone receptor (HR) without or with its ligand; for mUCP3 promoter reporter activity: transcription factor +/- ligand, control = 1.00
# How it was run: (§1)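 CV-1 cells were co-transfected with 50 ng NHR (homodimer or NHR/RXR heterodimer), 100 ng promoter-luciferase construct and 50 ng LacZ. Luciferase was normalized to LacZ and to a no-NHR/no-ligand control.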
# MCP-1 promoter = assay: NHR-promoter luciferase screen, MCP-1 promoter; type: cell-based; settings: for Normalized Luc. act., normalized to control / Luc. act., normalized to lacZ: MCP-1 promoter reporter; for Normalized Luc. act., normalized to control: HR without or with its ligand, relative to control; for mMCP-1 promoter reporter activity: transcription factor +/- ligand, control = 1.00; for Luc. act., normalized to lacZ: hormone receptor (HR) without or with its ligand
# How it was run: as §1
# mADRP promoter = assay: NHR-promoter luciferase screen, mADRP promoter; type: cell-based, mouse; settings: for Luc. act., normalized to lacZ / Normalized Luc. act., normalized to control: ADRP promoter, HR/ligand component; for mADRP promoter reporter activity: transcription factor +/- ligand, control = 1.00
# How it was run: as §1
# hCYP3A4 promoter = assay: NHR-promoter luciferase screen, hCYP3A4 promoter; type: cell-based, human; settings: for Luc. act., normalized to lacZ / Normalized Luc. act., normalized to control: CYP3A4 promoter, HR/ligand component; for hCYP3A4 promoter reporter activity: transcription factor +/- ligand, control = 1.00
# How it was run: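 CV-1 cells co-transfected with NHR homodimer or NHR/RXR heterodimer (pcDNA3.1, C-terminal V5H6 tag), promoter-luciferase construct and LacZ transfection control. Orphan receptors screened without ligand. Luciferase normalized to LacZ and to no-NHR/no-ligand control.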
# mABCA1 promoter = assay: NHR-promoter luciferase screen, mABCA1 promoter; type: cell-based, mouse; settings: for Luc. act., normalized to lacZ / Normalized Luc. act., normalized to control: ABCA1 promoter, hormone receptor with or without its ligand; for Normalized Luc. act., normalized to control: relative to control; for mABCA1 promoter reporter activity: transcription factor +/- ligand, control = 1.00
# How it was run: as §1
# mPer1 promoter = assay: NHR-promoter luciferase screen, mPer1 promoter; type: cell-based, mouse; settings: for Luc. act., normalized to lacZ / Normalized Luc. act., normalized to control: Per1 promoter reporter, co-transfected HR, with or without its ligand; for Normalized Luc. act., normalized to control: relative to control; for luciferase activity normalized to lacZ activity and to a control, mPer1: mPer1 promoter-luciferase, CV-1 cells, NHR +/- ligand, control = 1.00
# How it was run: as §1
Molecule,"Normalized Luc. act., normalized to control (mUCP3 promoter)","Luc. act., normalized to lacZ (mUCP3 promoter)",mUCP3 promoter reporter activity (mUCP3 promoter),"Normalized Luc. act., normalized to control (MCP-1 promoter)",mMCP-1 promoter reporter activity (MCP-1 promoter),"Luc. act., normalized to lacZ (mADRP promoter)","Normalized Luc. act., normalized to control (mADRP promoter)",mADRP promoter reporter activity (mADRP promoter),"Luc. act., normalized to lacZ (hCYP3A4 promoter)","Normalized Luc. act., normalized to control (hCYP3A4 promoter)",hCYP3A4 promoter reporter activity (hCYP3A4 promoter),"Luc. act., normalized to lacZ (mABCA1 promoter)","Normalized Luc. act., normalized to control (mABCA1 promoter)",mABCA1 promoter reporter activity (mABCA1 promoter),"Luc. act., normalized to lacZ (mPer1 promoter)","Normalized Luc. act., normalized to control (mPer1 promoter)","luciferase activity normalized to lacZ activity and to a control, mPer1 (mPer1 promoter)","Luc. act., normalized to lacZ (MCP-1 promoter)"
B1,0.8,0.6,0.83,0.0,0.00,676.1,1.4,1.36,0.3,0.1,0.06,11.1,2.0,1.97,50.5,0.4,0.35,–
B2,1.7,1.1,1.69,1.8,1.78,694.0,1.4,1.39,5.0,1.1,1.12,13.8,2.5,2.46,187.6,1.3,1.30,190.4
B3,0.9,0.6,0.90,1.1,1.08,623.0,1.3,1.25,3.1,0.7,0.70,6.1,1.1,1.08,86.6,0.6,0.60,115.7
